Assay results published in paper PMC9889268.

Biological target: wild-type ClbP (Escherichia coli CFT073) (UniProt Q0P7K6)
Test: cryo-EM structure; single-particle cryo-EM of detergent-solubilised ClbP; 10 mM HEPES pH 7.3, 200 mM NaCl, 0.06% GDN; 3.5 mg/ml; C2 symmetry imposed

wild-type ClbP (from UniProt Q0P7K6 1-504) (enzyme)
stoichiometry N: 2
